Experimental data published in PMC4231456, “HIV-1 Tat protein binds to TLR4-MD2 and signals to induce TNF-α and IL-10” (Retrovirology, 2013).

B1: recombinant human MD2 (natural protein, UniProt Q9Y6Y9 19-160, looked up)
chain: QKQYWVCNSSDASISYTYCDKMQYPISINVNPCIELKRSKGLLHIFYIPRRDLKQLYFNLYITVNTMNLPKRKEVICRGSDDDYSFCRALKGETVNTTISFSFKGIKFSKGKYKCVVEAISGSPEEMLFCLEFVILHQPNSN
notes: human MD2 (lymphocyte antigen 96), soluble recombinant; No catalogue number printed; also called rhMD2; hMD2; source: bought: R&D Systems

Columns and labels:
[1] = target: GST-Tat 1-101 (HIV-1 Tat protein) (HIV-1); test: ELISA; competition: GST-Tat 1-101 or GST-Tat 1-45 (0.1 μM) pre-incubated 1 h at 37°C with increasing amounts of soluble rhMD2, rhTLR4-MD2, rhTLR4 or rhCD14, then 2 h on coated rhMD2 (or TLR4-MD2); OD 450 nm; K0.5 taken as an apparent dissociation constant
[2] = target: T1, recombinant human TLR4 (human, UniProt O00206 24-631); test: ELISA; rh TLR4 coated at 1 μg/ml; MD2 at 1-10 μg/ml in solution; detected with anti-MD2 monoclonal antibodies; settings: both partners purified
T1 construct: human Toll-like receptor 4 (TLR4), recombinant, used coated or soluble without MD2; also called rhTLR4; rh TLR4
T1 sequence (O00206 24-631): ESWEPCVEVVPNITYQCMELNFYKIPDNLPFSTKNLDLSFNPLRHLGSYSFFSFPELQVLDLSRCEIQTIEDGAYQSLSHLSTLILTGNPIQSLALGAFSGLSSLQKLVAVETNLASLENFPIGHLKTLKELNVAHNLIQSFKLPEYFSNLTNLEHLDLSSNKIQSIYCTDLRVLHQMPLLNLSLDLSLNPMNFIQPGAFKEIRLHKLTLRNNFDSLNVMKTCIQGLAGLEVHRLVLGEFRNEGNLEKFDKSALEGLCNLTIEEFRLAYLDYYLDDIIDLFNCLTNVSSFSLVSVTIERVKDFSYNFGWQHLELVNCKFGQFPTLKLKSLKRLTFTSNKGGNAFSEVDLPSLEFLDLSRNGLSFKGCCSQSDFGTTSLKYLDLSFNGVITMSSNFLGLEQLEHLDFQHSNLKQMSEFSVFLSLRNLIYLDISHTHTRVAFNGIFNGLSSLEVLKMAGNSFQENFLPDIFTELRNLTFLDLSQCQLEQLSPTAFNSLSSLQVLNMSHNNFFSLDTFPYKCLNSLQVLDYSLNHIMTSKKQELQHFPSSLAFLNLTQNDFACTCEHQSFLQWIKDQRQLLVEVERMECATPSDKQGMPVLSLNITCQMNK

GST-Tat 1-101 (HIV-1 Tat protein) (HIV-1), sequence (P04614 whole entry): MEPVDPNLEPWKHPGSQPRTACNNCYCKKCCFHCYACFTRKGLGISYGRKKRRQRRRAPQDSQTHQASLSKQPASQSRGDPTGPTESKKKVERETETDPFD

| Molecule | IC50 [1] [nM] | percent inhibition of Tat binding to coated MD2 with soluble MD2 at 1 μg/ml [1] [%] | binding result [2] |
| --- | --- | --- | --- |
| recombinant human TLR4-MD2 complex (from UniProt O00206 24-631; Q9Y6Y9 19-160) | 1 |  |  |
| B1 | 4 | > 95 | binds |
